These results are taken from patent publication US20240190987A1, “Engineered EpCam Binding Antibodies” (TigaTX, priority 2021, published 2024).

Where a chain is given by its changes, count along the chain named. Names may count otherwise.

A short description of the series: Differential scanning fluorimetry (DSF) melting temperature. The class given is physicochemical. The method, then:
DSF was performed on a LC480 Lightcycler Instrument II (Roche). Purified recombinant protein was diluted to 5 μM in DSF buffer (PBS, pH 7.4, Sypro Orange 5×) with small molecule (10 μM VTX) or vehicle (0.05% DMSO) and then heated with a temperature gradient (0.01° C./s) from 25 to 95° C. Data were continuously acquired at ˜465 nm (excitation) and ˜580 nm (emission). Data was analyzed to generate first derivative curves in which the curve maximum was reported as the melting temperature of the protein.
For orientation: Differential scanning fluorimetry follows unfolding on heating by fluorescence.

The mark [1] stands for this setting: thermostability by DSF, Table 26.

B1: Ab0785: LS2A R2M34 Fab, His-Tag, Avi-Tag (antibody, V domains shown)
VH: QVQLVQSGAEVKKPGASVKVSCKASGYTFTSYWMHWVRQHPGQGLEWMGIIHPNSGGTSYAQKFQGRVTMTRDTSTSTVYMELSSLRSEDTAVYYCAMGDYVSRDYWGQGTLVTVSS
VL: EIVLTQSPGTLSLSPGERATLSCRASSSVSSSYLHWYQQKPGQAPRLLIYSTSSRATGIPDRFSGSGSGTDFTLTISRLEPEDFAVYYCQQYSGYQFTFGQGTKLEIK
For the molecule B1, for the setting “Table 19”, the “TM (° C.)” value came out at 70.9 °C.

B2: Ab0788: LS2A R3M3 Fab, HC: S58N on R2M34 (antibody)
heavy: QVQLVQSGAEVKKPGASVKVSCKASGYTFTSYWMHWVRQHPGQGLEWMGIIHPNSGGTNYAQKFQGRVTMTRDTSTSTVYMELSSLRSEDTAVYYCAMGDYVSRDYWGQGTLVTVSSASTKGPSVFPLAPSSKSTSGGTAALGCLVKDYFPEPVTVSWNSGALTSGVHTFPAVLQSSGLYSLSSVVTVPSSSLGTQTYICNVNHKPSNTKVDKKVEPKSCGGGGSHHHHHHGGGGSGLNDIFEAQKIEWHEG
VL: B1 VL
On to B2, for which the “TM (° C.)” value (Table 19) came to 70.1 °C.

B3: Ab1018: anti-EpCAM binding domain, FIGS. 8A-8C (antibody, V domains shown)
VH: EVQLVESGGGLVQPGGSLRLSCAASGFTFSNYWMNWVRQAPGKGLEWVAQIRVKSENFATHYADSVKGRFTISRDDSKSTVYLQMNSLRAEDTAVYYCTLYEGFSWGQGTLVTVSS
VL: DIQMTQSPSSLSASVGDRVTITCSASSSVSSGNFHWYQQKPGKAPKLLIYRTSNLASGVPSRFSGSGSGTDYTLTISSLQPEDFATYYCQQWSGYPYTFGQGTKVEIK
B3: the “TM (° C.)” value under setting [1] was found to be 69.9 °C.

B4: Ab1020: anti-EpCAM binding domain, FIGS. 8A-8C (antibody, V domains shown)
VH: B3 VH with N35H, E102D
VL: B3 VL
For the molecule B4, the “TM (° C.)” value under setting [1] worked out at 68 °C.

B5: Ab1022: anti-EpCAM binding domain, FIGS. 8A-8C (antibody, V domains shown)
VH: B3 VH with A40H, E102D
VL: B3 VL
As to B5, the “TM (° C.)” value under setting [1] is 69.6 °C.

B6: Ab1026: anti-EpCAM binding domain, FIGS. 8A-8C (antibody, V domains shown)
VH: B3 VH with E102D
VL: B3 VL with W92A
For B6, under setting [1], the “TM (° C.)” value was 69.1 °C.

B7: Ab1066: anti-EpCAM binding domain, FIGS. 8A-8C (antibody, V domains shown)
VH: B3 VH with E102D, G103A
VL: B3 VL with W92A
Consider B7, for which, under setting [1], the “TM (° C.)” value was 70.4 °C.

B8: Ab1024: anti-EpCAM binding domain, FIGS. 8A-8C (antibody, V domains shown)
VH: B3 VH with A63V, E102D
VL: B3 VL
For B8, the “TM (° C.)” value under setting [1] turned out to be 73.2 °C.

B9: Ab1065 (antibody, V domains shown)
VH: B3 VH
VL: B3 VL with W92A
With B9, the “TM (° C.)” value under setting [1] came to 72.3 °C.

B10: Ab0775: anti-CD3 binding domain, FIGS. 7A-7C (antibody)
heavy: EVQLVESGGGLVQPGGSLRLSCAASGFTFNTYAMNWVRQAPGKGLEWVGRIRSKYNNYATYYADSVKGRFTISRDDSKSILYLQMNSLRAEDTAVYYCVRHGNFGNSYVSWFAYWGQGTLVTVSSGGGGSGGGGSGGGGSDIQVTQSPSSLSASVGDRVTITCRSSTGAVTTSNYANWVQQKPGKAFKGLIGGTNKRAPGVPSRFSGSLSGDDATLTISSLQPEDFATYYCALWYSNLWVFGQGTKLEIKGGGGSDKTHTCPPCPAPEAAGGPSVFLFPPKPKDTLMISRTPEVTCVVVDVSHEDPEVKFNWYVDGVEVHNAKTKPREEQYNSTYRVVSVLTVLHQDWLNGKEYKCKVSNKALGAPIEKTISKAKGQPREPQVYTLPPSRDELTKNQVSLTCLVKGFYPSDIAVEWESNGQPENNYKTTPPVLDSDGSFFLYSKLTVDKSRWQQGNVFSCSVMHEALHNHYTQKSLSLSPGK
modifications: light chain not cited; REGION 1..482: note = Ab0775 HC
For the molecule B10, where the note is “DSF, hSP34v68 R1 variants (Table 23)”, the “TM (° C.)” value came to 64.1 °C.

B11: Ab0898: humanized LS2A R2M34 (antibody)
heavy: QVQLVQSGAEVKKPGASVKVSCKASGYTFTSYWMHWVRQHPGQGLEWMGIIHPNSGGTSYAQKFQGRVTMTRDTSTSTVYMELSSLRSEDTAVYYCAMGDYVSRDYWGQGTLVTVSSGGGGSGGGGSGGGGSEIVLTQSPGTLSLSPGERATLSCRASSSVSSSYLHWYQQKPGQAPRLLIYSTSSRATGIPDRFSGSGSGTDFTLTISRLEPEDFAVYYCQQYSGYQFTFGQGTKLEIKGGGGSDKTHTCPPCPAPEAAGGPSVFLFPPKPKDTLMISRTPEVTCVVVDVSHEDPEVKFNWYVDGVEVHNAKTKPREEQYNSTYRVVSVLTVLHQDWLNGKEYKCKVSNKALGAPIEKTISKAKGQPREPQVYTLPPSRDELTKNQVSLTCLVKGFYPSDIAVEWESNGQPENNYKTTPPVLDSDGSFFLYSKLTVDKSRWQQGNVFSCSVMHEALHNHYTQKSLSLSPGK
modifications: light chain not cited; REGION 1..472: note = Ab0898 HC
notes: humanized LS2A R2M34
As to B11, the “TM (° C.)” value (scFv-Fc format, LS2A R3 (Table 20)) came to 52.5 °C.
